Results published in the supplement of paper PMC12764529.
± gives the half width of the 95% confidence interval.

How the values were obtained:
[1] = folding stability dG unfold from trypsin proteolysis; higher = more stable
Protocol: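 Folding stability of de novo designed mini-proteins (<80 aa, no Cys; designed by TrROS, TrMRF, ProteinMPNN and the joint model) was measured by cDNA display proteolysis with trypsin and chymotrypsin. Each protease was used at 11 concentrations in a threefold dilution series plus a no-protease condition. K50 was inferred by Bayesian fitting of sequencing counts, and dG unfold was derived against a sequence-predicted unfolded-state K50 (Tsuboyama et al. method). Sequences shown include variable-length N-terminal GS-type padding (SAGGSAGG...) inside a display construct carrying a PA tag. Rows were kept only if the AF2 dimer inter-PAE was >15, to exclude likely homo-oligomers.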

[2] = folding stability dG unfold (combined trypsin and chymotrypsin); higher = more stable
Summary of the method: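 Mini-proteins designed to be under 80 residues and free of cysteine were carried in a PA-tagged cDNA display construct and digested with trypsin and with chymotrypsin. Each protease was applied at 11 threefold-diluted concentrations, alongside a no-protease condition, before sequencing. K50 came from Bayesian fitting of the sequencing counts, and unfolding free energy was obtained by comparing it with a sequence-predicted unfolded-state K50 and a shared folded-state K50, for each protease separately or for both together. Designs were retained only if their AlphaFold2 dimer inter-PAE exceeded 15.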

EMTVTVKIEIEKTPDSIKIKITVEVNGKKIEEVEITYDKKTKKIYIKVKVKSKEDLDELKKLLEKLGFKVES [r1_455_TrROS_Hall]
folding stability dG unfold [1]: 16 ± 1.3 kJ/mol | folding stability dG unfold [2]: > 25.1 kJ/mol

SAGGSAGGSAGEPEKPVLVKVILPGGKPLLIPGKREEAKKAVEELEKKGFPVEKAEVFDESAGGSAGGSAGG [r11_946_TrMRF]
folding stability dG unfold [1]: -2.03 ± 0.402 kJ/mol | folding stability dG unfold [2]: < -4.18 kJ/mol

SAGGSAGGSYSKNGQPPPTREIEIIILVEDPEEAENKADELSEMLGMPIKVEIIPEEDAKKMISAGGSAGGS [r12_766_TrROS]
folding stability dG unfold [1]: 0.183 ± 1 kJ/mol | folding stability dG unfold [2]: 1.13 ± 3.6 kJ/mol

SAGGMTPEELKKVTIEKTVKDPSGNEYLEKSEVKEVEKKDEKYILKIPYTIKDKNGNTISNGTKTIPLSAGG [r13_172_JUSTAS]
folding stability dG unfold [1]: -1.87 ± 2.09 kJ/mol | folding stability dG unfold [2]: < -4.18 kJ/mol

SAGGSAGGSYPIFDKEKGKLDPGPPEKELDVVIKVKKDGKWYPIDLKLSKSDLIRFVKELEKDSAGGSAGGS [r20_148_TrMRF]
folding stability dG unfold [1]: -2.92 ± 1 kJ/mol | folding stability dG unfold [2]: < -4.18 kJ/mol

SAGGSAGGSGMEKKTITITIPVPPDRDVTEEEIKETLKPLGYEEVDIEEIKPAGNSYTVTAVISAGGSAGGS [r20_79_JUSTAS]
folding stability dG unfold [1]: 0.888 ± 0.544 kJ/mol | folding stability dG unfold [2]: -1.79 ± 2.18 kJ/mol

SAGGSAGGSKITITIAPGMSEEEAKKLAEELAKEFNIEIEVKIEPLKPVEKKFYVDKETNEIKSAGGSAGGS [r12_159_TrROS_Hall]
folding stability dG unfold [1]: -1.49 ± 0.795 kJ/mol | folding stability dG unfold [2]: < -4.18 kJ/mol

SAGGSAGGSAGGSEPWYVRIQIPDGNQIMFPPGSEAKIEIPKEEKDIRITEVIPADDIKSAGGSAGGSAGGS [r4_122_TrROS]
folding stability dG unfold [1]: 0.0937 ± 0.544 kJ/mol | folding stability dG unfold [2]: < -4.18 kJ/mol

SAGGSAGGSAGKIKAYAEKDVPAEIVAKAIEEEIREAFPDNPEEIKGIEVEPDGFLSETISAGGSAGGSAGG [r17_43_TrMRF]
folding stability dG unfold [1]: -2.66 ± 0.628 kJ/mol | folding stability dG unfold [2]: < -4.18 kJ/mol

SAGGSAGGSGKWMTAKELLKEFKPGKTIMIRMPPGTEIPPNIKPKGTFPGNGWMMIKIPPNDISAGGSAGGS [r12_356_TrROS]
folding stability dG unfold [1]: -0.835 ± 1.88 kJ/mol | folding stability dG unfold [2]: -1.15 ± 1.76 kJ/mol

GMVLVRVELYRPDEEELVAEVEIPFPVPESLLENLSEEEREKLREEAEKAAEKLAEELGDVEVKPEIYTDLS [r1_115_TrMRF]
folding stability dG unfold [1]: 0.614 ± 0.397 kJ/mol | folding stability dG unfold [2]: -1.33 ± 1.76 kJ/mol

SAGGSAGGSAGVPVPGTDVPAEPITVLKKNPDGTVTKLKDESLTLEEIKAKLPGEVEFVGSAGGSAGGSAGG [r17_125_JUSTAS]
folding stability dG unfold [1]: 0.37 ± 0.586 kJ/mol | folding stability dG unfold [2]: < -4.18 kJ/mol

SAGGSAGGSAGMMEEKLIKEYEDPNGGKKYTIKLVKDPKTGKEKIVKETIEPNKKTTEIKNLSAGGSAGGSA [r18_444_JUSTAS]
folding stability dG unfold [1]: -1.51 ± 0.879 kJ/mol | folding stability dG unfold [2]: -1.53 ± 2.59 kJ/mol

SAGGSAGGSALVRIEFPNGREIEIPNNMPYEQAKDVAVELAEEHGKNGRPFKVKIEEIKPPGSAGGSAGGSA [r18_213_TrROS]
folding stability dG unfold [1]: 1.84 ± 0.402 kJ/mol | folding stability dG unfold [2]: -2.14 ± 2.34 kJ/mol

SAGGSAGGSQKIEITKVEPERGPNGRPYHRVNIEIVIPDGKPRKFDFYFDDPEDLENMTIELPSAGGSAGGS [r20_130_TrROS]
folding stability dG unfold [1]: -3.6 ± 0.711 kJ/mol | folding stability dG unfold [2]: -3.68 ± 0.795 kJ/mol

SAGGSAGGSAGGMKVSVSLDILETEVSPDGTVTATYKDESGEIRTITKYVEVKLKPGLASAGGSAGGSAGGS [r10_281_JUSTAS]
folding stability dG unfold [1]: -0.619 ± 0.28 kJ/mol | folding stability dG unfold [2]: -0.991 ± 0.795 kJ/mol

SAGGSAMKVATLKVGGVDHTVEITPLPDGSYPVTTTAEEGGETTTTVVPKSEVKKLEDLPPEYRLLSAGGSA [r15_629_JUSTAS]
folding stability dG unfold [1]: -1.73 ± 2.05 kJ/mol | folding stability dG unfold [2]: < -4.18 kJ/mol

SAGGMRIWRVPETGVRAEVGTGGPWLVTITSSTTPVPEVRPVPPEEVEAFLRARFPGPVEEVERRPVPESAG [r5_519_JUSTAS]
folding stability dG unfold [1]: -2.71 ± 1.42 kJ/mol | folding stability dG unfold [2]: -3.27 ± 0.795 kJ/mol

SAGGSAGGSAEVEIKVRPDDPIPPNLPIVLPDGKERDARVEAVLDPEDGTPVFKVYFDPRSDSAGGSAGGSA [r18_476_TrMRF]
folding stability dG unfold [1]: 3.23 ± 0.201 kJ/mol | folding stability dG unfold [2]: 0.221 ± 1.21 kJ/mol

SAGGSAGGSAGMEIPEDWTVVEESEVPDERLVTVHNPKTGELYVVTQPPATGEETVERYLSAGGSAGGSAGG [r11_896_JUSTAS]
folding stability dG unfold [1]: 0.104 ± 0.837 kJ/mol | folding stability dG unfold [2]: < -4.18 kJ/mol

SAGGSAGGSMIVVKTENGEEIEISKDALKPGMTAEELKAKLPPGVKKIEIVEVKEVEVEVEEESAGGSAGGS [r20_161_TrROS_Hall]
folding stability dG unfold [1]: -3.62 ± 1.67 kJ/mol | folding stability dG unfold [2]: < -4.18 kJ/mol

SAGGSAVPKSDPVIRIKVKYPSNPQVITVPRSEIVEMEVGPPENIMTIKNPKTGKEYPATLLEILASAGGSA [r15_495_JUSTAS]
folding stability dG unfold [1]: -2.22 ± 0.962 kJ/mol | folding stability dG unfold [2]: < -4.18 kJ/mol

SAGGELREKIEEAVEEAAKAGKPVVKTSEIEARLGRPLTPELLEYVREKGIIERDPKGSITITLPEDKSAGG [r13_188_JUSTAS]
folding stability dG unfold [1]: -3.74 ± 3.81 kJ/mol | folding stability dG unfold [2]: < -4.18 kJ/mol

SAGGSAGGSAGGSMPLRKVTVSRPDSTLEFEFPESVPEEEVKEKLKKEYPNAEVKVEPESAGGSAGGSAGGS [r4_155_JUSTAS]
folding stability dG unfold [1]: -2.65 ± 1.05 kJ/mol | folding stability dG unfold [2]: < -4.18 kJ/mol
